From patent US20140237632A1 (UNIVERSITY OF CHICAGO, published 2014)

Experiments:
[1] = molecular target: the molecule itself; assay: self-association; FRET in spectra and nondenaturing SDS-PAGE
[2] = molecular target: the molecule itself; assay: self-association; nondenaturing SDS-PAGE
Method: FIG. 4. Decreasing the net charge near the N terminus of DsRed reduces aggregation of the protein. (A) Nondenaturing SDS-PAGE of purified DsRed1 (WT), the Round 1 variant (R1), the Round 3 variant (R3), the Round 4 variant (R4), DsRed.T1 (T1), DsRed.T3 (T3) and DsRed.T4 (T4). 1 μg of each purified DsRed variant was mixed with SDS-containing sample buffer on ice and immediately electrophoresed at 4° C. in a 10% poly-acrylamide gel, followed by staining with Coomassie Blue. WT* and T4*: Additional aliquots of DsRed1 and DsRed.T4 were denatured by boiling prior to electrophoresis. MW: broad range prestained protein standard (Bio-Rad). (B) To measure the solubilities of the fluorescent proteins in E. coli, cells carrying pREP4 plus pQE31-based expression vectors encoding DsRed1, DsRed2, the Round 3 variant, the Round 4 variant, or EGFP were grown to an OD₆₀₀ of 0.5, induced with IPTG for 7 h, then lysed with B-PER II and centrifuged for 20 min at 27,000×g. […] The bound antibody was detected using the ECL-Plus kit (Amersham) and a Molecular Dynamics Storm 860 phosphorimager. For each fluorescent protein, a dilution series from the bacterial extract was analyzed, and a sample within the linear range for the detection system was chosen. The percentage of each protein in the supernatant fraction was then quantified. […]

Row | Protein | binding result [1] | binding result [2]
1 | DsRed.T3 (other, Fluorescent protein variant, purified with a hexahistidine tag from E. coli; Entered only for its self-association (tetramer); not shown: N-terminal hexahistidine tag (pQE31) and polylinker upstream of the start codon, carrying P(-4)L) MASSEDVIKEFMRFKVRMEGSVNGHEFEIEGEGEGRPYEGTQTAKLKVTKGGPLPFAWDILSPQFQYGSKVYVKHPADIPDYKKLSFPEGFKWERVMNFEDGGVVTVTQDSSLQDGCFIYKVKFIGVNFPSDGPVMQKKTMGWEPSTERLYPRDGVLKGEIHKALKLKDGGHYLVEFKSIYMAKKPVQLPGYYYVDSKLDITSHNEDYTIVEQYERTEGRHHLFL | binds | –
2 | DsRed Round 4 variant (other, Round 3 variant plus R2A, K5E and N6D; also called R4; not shown: N-terminal hexahistidine tag (pQE31) and polylinker upstream of the start codon, carrying P(-4)L) MASSEDVIKEFMRFKVRMEGSVNGHEFEIEGEGEGRPYEGTQTAKLKVTKGGPLPFAWDILSPQFQYGSKVYVKHPADIPDYKKLSFPEGFKWERVMNFEDGGVVTVTQDSSLQDGCFIYKVKFIGVNFPSDGPVMQKKTMGWEASTERLYPRDGVLKGEIHKALKLKDGGHYLVEFKSIYMAKKPVQLPGYYYVDSKLDITSHNEDYTIVEQYERTEGRHHLFL | – | binds
3 | DsRed.T4 (other, Fluorescent protein variant, purified with a hexahistidine tag from E. coli; Entered only for its self-association (tetramer); not shown: N-terminal hexahistidine tag (pQE31) and polylinker upstream of the start codon, carrying P(-4)L) MASSEDVIKEFMRFKVRMEGSVNGHEFEIEGEGEGRPYEGTQTAKLKVTKGGPLPFAWDILSPQFQYGSKVYVKHPADIPDYKKLSFPEGFKWERVMNFEDGGVVTVTQDSSLQDGCFIYKVKFIGVNFPSDGPVMQKKTMGWEPSTERLYPRDGVLKGEIHKALKLKDGGHYLVEFKSIYMAKKPVQLPGYYYVDSKLDITSHNEDYTIVEQYERAEGRHHLFL | binds | –
